The star is where a group is joined. CH2F = FC*
Molecular target: T1, recombinant human CPP32 (Homo sapiens, UniProt P42574)
T1 construct: β-CHAIN; 29; 175; CPP32 P17 SUBUNIT; α-CHAIN; 176; 277; CPP32 P12 SUBUNIT; made in house; host or cells: E. coli BL21 (DE3), pET21b
T1 sequence (P42574 29-175): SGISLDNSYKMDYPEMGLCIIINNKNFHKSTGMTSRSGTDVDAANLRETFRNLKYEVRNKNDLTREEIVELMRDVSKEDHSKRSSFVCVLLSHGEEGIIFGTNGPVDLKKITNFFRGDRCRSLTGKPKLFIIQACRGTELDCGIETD
T1 sequence (P42574 176-277): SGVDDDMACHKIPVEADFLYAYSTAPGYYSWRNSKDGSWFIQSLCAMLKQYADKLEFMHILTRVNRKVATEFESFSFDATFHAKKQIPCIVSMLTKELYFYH
Experiment: CPP32 protease activity inhibition (enzyme treated with irreversible inhibitor before crystallization)
Format: biochemical
Details: slight excess (1.6×) of inhibitor added to purified recombinant human CPP32 (C-terminal 6His) in 50 mM DTT, 50 mM HEPES, pH 8.0, on ice
Source text: As defined herein, purified CPP32 is more than 95% homogeneous. Protein homogeneity is determinable according to analytical methods well-known in the art, e.g. sequence analysis, electrophoresis, spectroscopic or chromatographic techniques. The purified protein is enzymatically active. Appropriate assays for determining CPP32 protease activity towards a suitable substrate, e.g. a natural substrate, such as PARP, or a synthetic substrate which is cleavable by CPP32, is known in the art. Advantagously, a peptide, such as aminomethylcoumarin, is used as synthetic substrate. […]
Recombinant human CPP32 expressed in a soluble form in E. coli (E. coli BL21) is purified to homogeneity by Ni^2+ chromatography using an imidazole gradient (60 mM-1 M). […] The purified CPP32 protein is more than 95% homogeneous, as determined by SDS-PAGE (10–20% gradient gel), reverse phase high performance liquid chromatography (RP-HPLC), MALDI-TOF mass spectrometry, N-terminal sequence and amino acid analysis. […] The purified CPP32 protein which is a (p17p12)2 tetramer in solution, as analyzed by dynamic light scattering, compares to the published CPP32 amino acid sequence (Fernandes-Alnemri, T., Litwack, G. & Alnemri, E. S. (1994). J. Biol. Chem. 269, 30761–30764, FIG. 1, p.30762) as follows: […]

## Ac-Asp-Val-Ala-Asp-fluoromethylketone (Ac-DVAD-CH2F; SMILES CC(=O)N[C@@H](CC(=O)O)C(=O)N[C@H](C(=O)N[C@@H](C)C(=O)N[C@@H](CC(=O)O)C(=O)CF)C(C)C)
  enzyme inhibited: 99.9%
